Here are results for five substances from patent publication US20050215629.

The subject of this data set is synthetic phosphotyrosine peptide Arg-Arg-Leu-Ile-Glu-Asp-Ala-Glu-Tyr-Ala-Ala-Arg-Gly, wherein the tyrosine is phosphorylated.

GST fusion protein of SHP-2: the “PTPase activity (malachite green, absorbance at 660 nm)” value (“PTPase activity” for short) is 660 nm absorbance approximately 0.6 above background (0.03).

GST fusion protein of SHP-1: the “PTPase activity” value is given as 660 nm absorbance approximately 0.6 above background (0.03).

Take “GST fusion protein of mitogen-activated protein kinase phosphatase 1 (MKP1)”: the “PTPase activity” value is reported as 660 nm absorbance approximately 0.6 above background (0.03).

With “GST fusion protein of SHP-1 catalytic domain (SHP-1cata)”, the “in vitro PTPase assay” value is “the two proteins in their dephosphorylation of the phosphotyrosine peptide substrate in vitro”.

With “GST fusion protein of protein tyrosine phosphatase 1B (PTP1B)”, the “PTPase activity” value is listed as 660 nm absorbance approximately 0.6 above background (0.03).
